The target in experiment [1] is SpAKKAA (Staphylococcus aureus). Briefly: ELISA, OD 450 against log10(1/dilution of 3F6), initial 0.05 mg/mL. (ELISA stands for enzyme-linked immunosorbent assay.)
In experiment [2] the target is SpAQ9,10K/G29F/D36,37A (Staphylococcus aureus) (UniProt P02976). The experiment is described as above.
The target of experiment [3] is human IgG. Briefly: SPR, test article on chip, human IgG in flow. A general note: SPR reads the build-up and loss of mass on a sensor chip optically.
Experiment [4] deals with F(ab)2 fragment of human IgG. Briefly: SPR, test article on chip, F(ab)2 fragment of human IgG in flow.
The target of experiment [5] is Fcγ fragment of human IgG (human). Briefly: BLI, test article on Ni-NTA sensor, Fc fragment of human IgG in solution. A general note: BLI is a label-free optical method that tracks binding on a fibre tip over time.
The target of experiment [6] is human IgG. As to the kind of experiment: method and unit not given (binding affinity of the variants to human IgG).
In experiment [7] the target is human IgE. Briefly: method and unit not told (binding affinity of the variants to human IgE).
Experiment [8] addresses SpAQ9,10K/S33E (Staphylococcus aureus).
The target of experiment [9] is SpAQ9,10K/S33T (Staphylococcus aureus).
Experiment [10] deals with SpAKKAA (Staphylococcus aureus). Briefly: ELISA, plates coated with SpAKKAA, serial dilution of hMAb 3F6.
Experiment [11] shares this target. Briefly: ELISA, association constant calculated with GraphPad Prism; head of the table: KA (x 10^10) M^-1.
Experiment [12] addresses SpAQ9,10K/S33E (Staphylococcus aureus). The experiment is described as above.
Experiment [13] concerns the target SpAQ9,10K/S33T (Staphylococcus aureus). The experiment is described as above.
Experiment [14] concerns the target SpAQ9,10K/S33E (Staphylococcus aureus). The source holds these as a separate data set.
Experiment [15] addresses SpAQ9,10K/S33T (Staphylococcus aureus). This is another data set of the same source.
In experiment [16] the target is SpAKKAA (Staphylococcus aureus). Briefly: ELISA, plate coated with antigen, serial dilutions of rMAb 3F6.
For experiment [17], the target named is SpAQ9,10K/S33E (Staphylococcus aureus). The experiment is described as above.
Experiment [18] concerns the target SpAQ9,10K/S33T (Staphylococcus aureus). The experiment is described as above.
For experiment [19], the target named is SpAKKAA (Staphylococcus aureus). Briefly: ELISA, plates coated with SpAKKAA, serial dilution of rMAb 3F6.

Read-outs that look alike come from different tables or passages of the source.

In the case of 3F6 (antibody), the EC50 (read off the curve) in experiment [1] and in experiment [2] was 6 ng/mL each time.

As for “SpAKKAA (from UniProt A0A0H3K686 37-327)”, the Ka came to 502000 M⁻¹ in experiment [3], 82700 M⁻¹ in experiment [4] and 32.9 M⁻¹ in experiment [5]. The human IgG affinity in experiment [6] was found to be 6.6e-05. Also, in experiment [7], the human IgE affinity was determined as 6.57e-08.

For the substance “SpAQ9,10K/G29A (from UniProt A0A0H3K686 37-327)”, the Ka in [3] is 1.13e+06 M⁻¹.

“SpAQ9,10K/G29A/D36,37A (from UniProt A0A0H3K686 37-327)” displayed a Ka in experiment [3] of 178000 M⁻¹. The substance also displayed a human IgG affinity in experiment [6] of 0.000143. This substance yielded a human IgE affinity in experiment [7] of 3.43e-06.

For “SpAQ9,10K/G29C (from UniProt A0A0H3K686 37-327)”, the Ka in [3] came to 174000 M⁻¹.

As to “SpAQ9,10K/G29D (from UniProt A0A0H3K686 37-327)”, the Ka in experiment [3] was 548000 M⁻¹.

In [3], “SpAQ9,10K/G29E (from UniProt A0A0H3K686 37-327)” displayed a Ka of 318000 M⁻¹.

Turning to “SpAQ9,10K/G29F (from UniProt A0A0H3K686 37-327)”, in experiment [3], the Ka worked out at 346000 M⁻¹.

In turn, “SpAQ9,10K/G29F/D36,37A (from UniProt P02976 37-327)” showed a Ka in [3] of 372000 M⁻¹. This substance had a human IgG affinity in experiment [6] of 0.0124. The human IgE affinity in [7] stood at 2.02e-05.

Take “SpAQ9,10K/G29H (from UniProt A0A0H3K686 37-327)”: the Ka in experiment [3] was 144000 M⁻¹.

With “SpAQ9,10K/G29I (from UniProt A0A0H3K686 37-327)”, the Ka in experiment [3] was determined as 1.01e+06 M⁻¹.

In turn, “SpAQ9,10K/G29K (from UniProt A0A0H3K686 37-327)” had a Ka in experiment [3] of 974000 M⁻¹.

As to “SpAQ9,10K/G29L (from UniProt A0A0H3K686 37-327)”, the Ka in experiment [3] was determined as 315000 M⁻¹.

In experiment [3], “SpAQ9,10K/G29M (from UniProt A0A0H3K686 37-327)” displayed a Ka of 389000 M⁻¹.

As for “SpAQ9,10K/G29N (from UniProt A0A0H3K686 37-327)”, the Ka in experiment [3] turned out to be 623000 M⁻¹.

In experiment [3], “SpAQ9,10K/G29P (from UniProt A0A0H3K686 37-327)” showed a Ka of 340000 M⁻¹.

Take “SpAQ9,10K/G29Q (from UniProt A0A0H3K686 37-327)”: the Ka in experiment [3] is 206000 M⁻¹.

As to “SpAQ9,10K/G29R (from UniProt A0A0H3K686 37-327)”, the Ka in experiment [3] was found to be 606000 M⁻¹.

In [3], “SpAQ9,10K/G29R/D36,37A (from UniProt A0A0H3K686 37-327)” registered a Ka of 681000 M⁻¹.

As to “SpAQ9,10K/G29S (from UniProt A0A0H3K686 37-327)”, the Ka in experiment [3] was found to be 940000 M⁻¹.

Regarding “SpAQ9,10K/G29T (from UniProt A0A0H3K686 37-327)”, the Ka in experiment [3] stood at 198000 M⁻¹.

With “SpAQ9,10K/G29V (from UniProt A0A0H3K686 37-327)”, the Ka in [3] amounted to 435000 M⁻¹.

“SpAQ9,10K/G29W (from UniProt A0A0H3K686 37-327)”: the Ka in [3] stood at 451000 M⁻¹.

In experiment [3], “SpAQ9,10K/G29Y (from UniProt A0A0H3K686 37-327)” gave a Ka of 837000 M⁻¹.

As to “SpAQ9,10K/S33A/D36,37A (from UniProt A0A0H3K686 37-327)”, the Ka in experiment [3] is 1.88e+06 M⁻¹.

For “SpAQ9,10K/S33C (from UniProt P02976 37-327)”, the Ka in experiment [3] came to 458000 M⁻¹.

The substance “SpAQ9,10K/S33D (from UniProt P02976 37-327)” yielded a Ka in experiment [3] of 382000 M⁻¹.

For “SpAQ9,10K/S33E (from UniProt A0A0H3K686 37-327)”, the values for the Ka in experiment [3], in experiment [4] and in [5] were 49600 M⁻¹, 41.2 M⁻¹ and 32.7 M⁻¹, respectively.

Substance “SpAQ9,10K/S33E/D36,37A (from UniProt P02976 37-327)” gave a Ka in experiment [3] of 56800 M⁻¹.

Regarding “SpAQ9,10K/S33E/D36,37A/G29A (from UniProt P02976 37-327)”, the Ka in [3] turned out to be 189000 M⁻¹.

In turn, “SpAQ9,10K/S33E/D36,37A/G29F (from UniProt P02976 37-327)” had a Ka in [3] of 1.48e+06 M⁻¹.

For “SpAQ9,10K/S33E/D36,37A/G29R (from UniProt P02976 37-327)”, in experiment [3], the Ka stood at 1.02e+06 M⁻¹.

In [3], “SpAQ9,10K/S33E/G29A (from UniProt P02976 37-327)” came in with a Ka of 126000 M⁻¹.

Regarding “SpAQ9,10K/S33E/G29F (from UniProt P02976 37-327)”, in experiment [3], the Ka was found to be 158000 M⁻¹.

For “SpAQ9,10K/S33E/G29R (from UniProt P02976 37-327)”, the Ka in experiment [3] was determined as 484000 M⁻¹.

In experiment [3], “SpAQ9,10K/S33F/D36,37A (from UniProt A0A0H3K686 37-327)” yielded a Ka of 363000 M⁻¹.

In [3], SpAQ9,10K/S33F/D36,37A/G29R came in with a Ka of 906000 M⁻¹.

Substance “SpAQ9,10K/S33F/G29A (from UniProt A0A0H3K686 37-327)” had a Ka in experiment [3] of 119000 M⁻¹.

Regarding “SpAQ9,10K/S33F/G29F (from UniProt A0A0H3K686 37-327)”, the Ka in experiment [3] came to 244000 M⁻¹.

For the substance “SpAQ9,10K/S33F/G29R (from UniProt A0A0H3K686 37-327)”, the Ka in experiment [3] turned out to be 190000 M⁻¹.

In the case of “SpAQ9,10K/S33G (from UniProt P02976 37-327)”, in experiment [3], the Ka is 1.12e+06 M⁻¹.

In the case of “SpAQ9,10K/S33H (from UniProt A0A0H3K686 37-327)”, the Ka in [3] stood at 278000 M⁻¹.

Substance “SpAQ9,10K/S33I (from UniProt A0A0H3K686 37-327)” came in with a Ka in [3] of 184000 M⁻¹.

Substance “SpAQ9,10K/S33K (from UniProt P02976 37-327)” came in with a Ka in [3] of 512000 M⁻¹.

Turning to “SpAQ9,10K/S33K/D36,37A (from UniProt A0A0H3K686 37-327)”, the Ka in experiment [3] was 805000 M⁻¹.

In turn, “SpAQ9,10K/S33L (from UniProt A0A0H3K686 37-327)” came in with a Ka in experiment [3] of 205000 M⁻¹.

For the substance “SpAQ9,10K/S33M (from UniProt A0A0H3K686 37-327)”, the Ka in experiment [3] is 318000 M⁻¹.

“SpAQ9,10K/S33N (from UniProt A0A0H3K686 37-327)”: in experiment [3], the Ka was 307000 M⁻¹.

The substance “SpAQ9,10K/S33P (from UniProt P02976 37-327)” came in with a Ka in experiment [3] of 422000 M⁻¹.

“SpAQ9,10K/S33Q/D36,37A (from UniProt P02976 37-327)” had a Ka in experiment [3] of 393000 M⁻¹.

In [3], SpAQ9,10K/S33Q/D36,37A/G29A showed a Ka of 489000 M⁻¹.

Turning to SpAQ9,10K/S33Q/D36,37A/G29F, the Ka in experiment [3] is 1.25e+06 M⁻¹.

In turn, SpAQ9,10K/S33Q/D36,37A/G29R registered a Ka in experiment [3] of 638000 M⁻¹.

In experiment [3], “SpAQ9,10K/S33Q/G29A (from UniProt A0A0H3K686 37-327)” showed a Ka of 256000 M⁻¹.

In experiment [3], “SpAQ9,10K/S33Q/G29F (from UniProt A0A0H3K686 37-327)” registered a Ka of 128000 M⁻¹.

“SpAQ9,10K/S33Q/G29R (from UniProt A0A0H3K686 37-327)” registered a Ka in experiment [3] of 233000 M⁻¹.

The substance “SpAQ9,10K/S33R (from UniProt A0A0H3K686 37-327)” came in with a Ka in [3] of 346000 M⁻¹.

In the case of “SpAQ9,10K/S33T (from UniProt A0A0H3K686 37-327)”, the Ka in experiment [3] amounted to 38600 M⁻¹; in experiment [4] it was 43.5 M⁻¹; in [5], 39.9 M⁻¹.

“SpAQ9,10K/S33V (from UniProt A0A0H3K686 37-327)” showed a Ka in experiment [3] of 247000 M⁻¹.

As for “SpAQ9,10K/S33W (from UniProt A0A0H3K686 37-327)”, the Ka in [3] worked out at 236000 M⁻¹.

As to “SpAQ9,10K/S33Y (from UniProt A0A0H3K686 37-327)”, the Ka in [3] is 157000 M⁻¹.

hMAb 3F6 (antibody): the EC50 (read off the curve) (in general, the concentration needed to bring the measured effect to its halfway point) is 300 pM in experiment [8], 300 pM in experiment [9] and 400 pM in experiment [10]. The values for the Ka in experiment [11], in experiment [12] and in [13] were 4.99e+10 M⁻¹, 9.82e+10 M⁻¹ and 7.96e+10 M⁻¹, respectively.

Turning to “recombinant monoclonal antibody rMAb 3F6”, the EC50 (read off the curve) in [14], in [15] and in experiment [19] was 70 pM throughout. The results for the Ka in experiment [16], in [17] and in experiment [18] were 1.51e+10 M⁻¹, 1.42e+10 M⁻¹ and 1.34e+10 M⁻¹, respectively.

In the case of “wild-type SpA (five immunoglobulin-binding domains of staphylococcal protein A) (from UniProt P02976 37-327)”, in experiment [5], the Ka came out at 5.17e+07 M⁻¹.

These data come from US20220362368A1.
